# Source: paper PMC9482650, “Quantitative fragmentomics allow affinity mapping of interactomes” (Nature Communications, 2022)
# T1: APBA2_1, Q99767
# T1 sequence (Q99767 563-664, limits assumed, looked up): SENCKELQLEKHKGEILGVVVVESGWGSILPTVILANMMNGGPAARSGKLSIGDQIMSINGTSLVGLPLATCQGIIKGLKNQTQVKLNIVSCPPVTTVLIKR
# T2: APBA3_1, O96018
# T2 sequence (O96018 389-490, limits assumed, looked up): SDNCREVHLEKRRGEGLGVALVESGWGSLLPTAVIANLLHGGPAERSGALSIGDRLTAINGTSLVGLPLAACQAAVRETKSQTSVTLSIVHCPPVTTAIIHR
# T3: DFNB31_2, Q9P202
# T3 sequence (Q9P202 274-371, limits assumed, looked up): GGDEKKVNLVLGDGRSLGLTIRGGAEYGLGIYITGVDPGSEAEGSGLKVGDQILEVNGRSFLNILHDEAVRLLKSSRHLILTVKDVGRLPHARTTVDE
# T4: DFNB31_3, Q9P202
# T4 sequence (Q9P202 811-907, limits assumed, looked up): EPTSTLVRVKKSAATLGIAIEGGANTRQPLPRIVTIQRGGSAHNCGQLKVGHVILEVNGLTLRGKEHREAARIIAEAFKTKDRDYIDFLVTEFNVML
# T5: DLG3_2, Q92796
# T5 sequence (Q92796 221-321, limits assumed, looked up): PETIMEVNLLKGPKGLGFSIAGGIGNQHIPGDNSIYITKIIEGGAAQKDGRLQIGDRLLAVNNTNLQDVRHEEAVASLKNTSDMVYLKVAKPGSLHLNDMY
# T6: DLG3_3, Q92796
# T6 sequence (Q92796 374-475, limits assumed, looked up): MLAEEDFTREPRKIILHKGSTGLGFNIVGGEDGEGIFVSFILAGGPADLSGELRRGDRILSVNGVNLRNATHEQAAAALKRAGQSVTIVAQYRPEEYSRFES
# T7: HTRA3, P83110
# T7 sequence (P83110 354-453, limits assumed, looked up): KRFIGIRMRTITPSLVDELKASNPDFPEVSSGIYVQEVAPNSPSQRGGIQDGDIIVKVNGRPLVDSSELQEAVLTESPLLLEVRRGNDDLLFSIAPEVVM
# T8: MPP6, Q9NZW5
# T8 sequence (Q9NZW5 125-219, limits assumed, looked up): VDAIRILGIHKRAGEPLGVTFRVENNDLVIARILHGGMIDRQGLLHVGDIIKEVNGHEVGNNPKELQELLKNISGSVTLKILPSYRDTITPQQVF
# T9: PARD3B_1, Q8TEW8
# T9 sequence (Q8TEW8 196-299, limits assumed, looked up): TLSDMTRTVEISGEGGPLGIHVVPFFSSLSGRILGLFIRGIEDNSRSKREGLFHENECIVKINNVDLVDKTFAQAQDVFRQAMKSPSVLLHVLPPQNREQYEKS
# T10: SNTA1, Q13424
# T10 sequence (Q13424 82-180, limits assumed, looked up): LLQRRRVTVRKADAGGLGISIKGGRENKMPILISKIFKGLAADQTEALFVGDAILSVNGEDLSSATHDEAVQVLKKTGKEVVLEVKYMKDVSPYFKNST
# T11: SNTG1, Q9NSN8
# T11 sequence (Q9NSN8 52-150, limits assumed, looked up): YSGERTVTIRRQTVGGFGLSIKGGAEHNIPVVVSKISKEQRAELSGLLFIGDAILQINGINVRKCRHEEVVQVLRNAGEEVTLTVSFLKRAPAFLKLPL
# B1: HPV16-E6_-2P, P03126 (peptide)
# chain: SSRTRRETQL
# B2: SCN8A, Q9UQD0 (peptide)
# chain: RQKEVRESKC
# B3: ZSCAN30, Q86W11 (peptide)
# chain: MQHQRTHTRV
# B4: TRPV6, Q9H1D0 (peptide)
# chain: EDGESWEYQI
# Legend:
# Assay in all cases: holdup assay
# Design in all cases: key: below the threshold = too weak to quantify, mostly under pKd 3.1 to 4
# APBA2_1, Q99767 = target: T1, APBA2_1, Q99767
# APBA3_1, O96018 = target: T2, APBA3_1, O96018
# DFNB31_2, Q9P202 = target: T3, DFNB31_2, Q9P202
# DFNB31_3, Q9P202 = target: T4, DFNB31_3, Q9P202
# DLG3_2, Q92796 = target: T5, DLG3_2, Q92796
# DLG3_3, Q92796 = target: T6, DLG3_3, Q92796
# DLG4_3, P78352 = target: DLG4_3, P78352
# DLG4_3, P78352, sequence (P78352 306-403): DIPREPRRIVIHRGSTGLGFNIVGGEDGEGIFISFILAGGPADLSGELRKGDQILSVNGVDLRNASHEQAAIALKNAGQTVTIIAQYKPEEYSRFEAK
# GRASP, Q7Z6J2 = target: GRASP, Q7Z6J2
# GRASP, Q7Z6J2, sequence (Q7Z6J2 96-193): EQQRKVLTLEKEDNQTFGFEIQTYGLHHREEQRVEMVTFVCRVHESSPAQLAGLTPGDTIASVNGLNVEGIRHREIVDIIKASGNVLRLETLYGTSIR
# GRIP2_5, Q9C0E4 = target: GRIP2_5, Q9C0E4
# GRIP2_5, Q9C0E4, sequence (Q9C0E4 544-642): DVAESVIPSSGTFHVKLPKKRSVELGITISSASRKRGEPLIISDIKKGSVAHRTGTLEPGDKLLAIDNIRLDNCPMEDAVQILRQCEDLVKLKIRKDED
# HTRA1, Q92743 = target: HTRA1, Q92743
# HTRA1, Q92743, sequence (Q92743 360-477): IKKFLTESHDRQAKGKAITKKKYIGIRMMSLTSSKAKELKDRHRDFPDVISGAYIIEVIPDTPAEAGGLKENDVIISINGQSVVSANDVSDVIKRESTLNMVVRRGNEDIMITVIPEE
# HTRA3, P83110 = target: T7, HTRA3, P83110
# IL16_1, Q14005 = target: IL16_1, Q14005
# IL16_1, Q14005, sequence (Q14005 210-306): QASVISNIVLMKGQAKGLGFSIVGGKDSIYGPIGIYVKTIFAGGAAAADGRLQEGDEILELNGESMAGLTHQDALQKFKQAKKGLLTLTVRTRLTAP
# IL16_4, Q14005 = target: IL16_4, Q14005
# IL16_4, Q14005, sequence (Q14005 1229-1329): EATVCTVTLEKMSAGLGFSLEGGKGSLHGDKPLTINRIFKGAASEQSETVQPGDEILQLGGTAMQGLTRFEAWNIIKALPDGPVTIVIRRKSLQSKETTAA
# Inadl_2, Q8NI35 = target: Inadl_2, Q8NI35
# Inadl_2, Q8NI35, sequence (Q8NI35 238-335): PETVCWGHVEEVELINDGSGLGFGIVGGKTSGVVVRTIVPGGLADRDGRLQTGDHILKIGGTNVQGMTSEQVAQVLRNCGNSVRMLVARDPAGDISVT
# Inadl_6, Q8NI35 = target: Inadl_6, Q8NI35
# Inadl_6, Q8NI35, sequence (Q8NI35 1058-1167): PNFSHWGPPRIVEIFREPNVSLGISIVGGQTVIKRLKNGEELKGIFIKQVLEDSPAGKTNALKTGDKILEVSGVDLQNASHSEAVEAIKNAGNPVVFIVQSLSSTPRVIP
# Inadl_9, Q8NI35 = target: Inadl_9, Q8NI35
# Inadl_9, Q8NI35, sequence (Q8NI35 1530-1615): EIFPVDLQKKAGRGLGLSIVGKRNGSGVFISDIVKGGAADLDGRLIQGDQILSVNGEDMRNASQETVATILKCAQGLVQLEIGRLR
# LAP2, Q96RT1 = target: LAP2, Q96RT1
# LAP2, Q96RT1, sequence (Q96RT1 other isoform, or with tags, fused parts or gaps): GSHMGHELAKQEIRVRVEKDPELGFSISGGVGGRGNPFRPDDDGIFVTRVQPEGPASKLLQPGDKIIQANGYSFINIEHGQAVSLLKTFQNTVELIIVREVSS
# LNX1_2, Q8TBB1 = target: LNX1_2, Q8TBB1
# LNX1_2, Q8TBB1, sequence (Q8TBB1 371-470): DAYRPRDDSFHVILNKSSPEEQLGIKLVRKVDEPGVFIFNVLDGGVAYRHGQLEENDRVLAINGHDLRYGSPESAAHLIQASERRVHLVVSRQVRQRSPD
# MAGI2_4, Q86UL8 = target: MAGI2_4, Q86UL8
# MAGI2_4, Q86UL8, sequence (Q86UL8 772-865): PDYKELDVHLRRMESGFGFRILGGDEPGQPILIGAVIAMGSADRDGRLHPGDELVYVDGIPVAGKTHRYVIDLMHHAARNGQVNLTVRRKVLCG
# MAST1, Q9Y2H9 = target: MAST1, Q9Y2H9
# MAST1, Q9Y2H9, sequence (Q9Y2H9 962-1065): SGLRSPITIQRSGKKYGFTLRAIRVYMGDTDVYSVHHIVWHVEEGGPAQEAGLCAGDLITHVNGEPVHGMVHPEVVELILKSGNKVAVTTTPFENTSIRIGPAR
# MPP6, Q9NZW5 = target: T8, MPP6, Q9NZW5
# NHERF2_2, Q15599 = target: NHERF2_2, Q15599
# NHERF2_2, Q15599, sequence (Q15599 142-238): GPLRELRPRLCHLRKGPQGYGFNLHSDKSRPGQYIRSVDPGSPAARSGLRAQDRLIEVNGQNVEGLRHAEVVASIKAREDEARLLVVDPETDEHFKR
# PARD3B_1, Q8TEW8 = target: T9, PARD3B_1, Q8TEW8
# SCRIB_1, Q14160 = target: SCRIB_1, Q14160
# SCRIB_1, Q14160, sequence (Q14160 718-814): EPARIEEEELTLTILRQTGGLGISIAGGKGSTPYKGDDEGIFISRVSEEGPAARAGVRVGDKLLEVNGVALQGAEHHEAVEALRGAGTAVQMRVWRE
# SNTA1, Q13424 = target: T10, SNTA1, Q13424
# SNTG1, Q9NSN8 = target: T11, SNTG1, Q9NSN8
# [1] = modified: phospho on T at position -2 from the C-terminal residue
# [2] = plain residues with an end cap or a label only (N-terminal biotin on a linker: ado-ado)
binder,measurement,setting,value
B1,pKd,"APBA2_1, Q99767; [1]",below the threshold
same,pKd,"APBA3_1, O96018; [1]",below the threshold
same,pKd,"DFNB31_2, Q9P202; [1]",below the threshold
same,pKd,"DFNB31_3, Q9P202; [1]",3.89
same,pKd,"DLG3_2, Q92796; [1]",below the threshold
same,pKd,"DLG3_3, Q92796; [1]",below the threshold
same,pKd,"DLG4_3, P78352; [1]",below the threshold
same,pKd,"GRASP, Q7Z6J2; [1]",below the threshold
same,pKd,"GRIP2_5, Q9C0E4; [1]",below the threshold
same,pKd,"HTRA1, Q92743; [1]",below the threshold
same,pKd,"HTRA3, P83110; [1]",below the threshold
same,pKd,"IL16_1, Q14005; [1]",below the threshold
same,pKd,"IL16_4, Q14005; [1]",below the threshold
same,pKd,"Inadl_2, Q8NI35; [1]",below the threshold
same,pKd,"Inadl_6, Q8NI35; [1]",below the threshold
same,pKd,"Inadl_9, Q8NI35; [1]",below the threshold
same,pKd,"LAP2, Q96RT1; [1]",below the threshold
same,pKd,"LNX1_2, Q8TBB1; [1]",below the threshold
same,pKd,"MAGI2_4, Q86UL8; [1]",below the threshold
same,pKd,"MAST1, Q9Y2H9; [1]",below the threshold
same,pKd,"MPP6, Q9NZW5; [1]",below the threshold
same,pKd,"NHERF2_2, Q15599; [1]",below the threshold
same,pKd,"PARD3B_1, Q8TEW8; [1]",below the threshold
same,pKd,"SCRIB_1, Q14160; [1]",below the threshold
same,pKd,"SNTA1, Q13424; [1]",below the threshold
same,pKd,"SNTG1, Q9NSN8; [1]",below the threshold
B2,pKd,"APBA2_1, Q99767; [2]",below the threshold
same,pKd,"APBA3_1, O96018; [2]",below the threshold
same,pKd,"DFNB31_2, Q9P202; [2]",4.37
same,pKd,"DFNB31_3, Q9P202; [2]",3.95
same,pKd,"DLG3_2, Q92796; [2]",4.1
same,pKd,"DLG3_3, Q92796; [2]",3.58
same,pKd,"DLG4_3, P78352; [2]",4.6
same,pKd,"GRASP, Q7Z6J2; [2]",below the threshold
same,pKd,"GRIP2_5, Q9C0E4; [2]",below the threshold
same,pKd,"HTRA1, Q92743; [2]",below the threshold
same,pKd,"HTRA3, P83110; [2]",3.5
same,pKd,"IL16_1, Q14005; [2]",3.7
same,pKd,"IL16_4, Q14005; [2]",3.68
same,pKd,"Inadl_2, Q8NI35; [2]",below the threshold
same,pKd,"Inadl_6, Q8NI35; [2]",below the threshold
same,pKd,"Inadl_9, Q8NI35; [2]",below the threshold
same,pKd,"LAP2, Q96RT1; [2]",below the threshold
same,pKd,"LNX1_2, Q8TBB1; [2]",below the threshold
same,pKd,"MAGI2_4, Q86UL8; [2]",below the threshold
same,pKd,"MAST1, Q9Y2H9; [2]",4.34
same,pKd,"MPP6, Q9NZW5; [2]",below the threshold
same,pKd,"NHERF2_2, Q15599; [2]",3.57
same,pKd,"PARD3B_1, Q8TEW8; [2]",below the threshold
same,pKd,"SCRIB_1, Q14160; [2]",4.53
same,pKd,"SNTA1, Q13424; [2]",4.65
same,pKd,"SNTG1, Q9NSN8; [2]",3.77
B3,pKd,"APBA2_1, Q99767; [2]",below the threshold
same,pKd,"APBA3_1, O96018; [2]",below the threshold
same,pKd,"DFNB31_2, Q9P202; [2]",below the threshold
same,pKd,"DFNB31_3, Q9P202; [2]",below the threshold
same,pKd,"DLG3_2, Q92796; [2]",4.88
same,pKd,"DLG3_3, Q92796; [2]",4.3
same,pKd,"DLG4_3, P78352; [2]",4.22
same,pKd,"GRASP, Q7Z6J2; [2]",4.34
same,pKd,"GRIP2_5, Q9C0E4; [2]",below the threshold
same,pKd,"HTRA1, Q92743; [2]",3.99
same,pKd,"HTRA3, P83110; [2]",below the threshold
same,pKd,"IL16_1, Q14005; [2]",below the threshold
same,pKd,"IL16_4, Q14005; [2]",below the threshold
same,pKd,"Inadl_2, Q8NI35; [2]",below the threshold
same,pKd,"Inadl_6, Q8NI35; [2]",below the threshold
same,pKd,"Inadl_9, Q8NI35; [2]",3.62
same,pKd,"LAP2, Q96RT1; [2]",3.89
same,pKd,"LNX1_2, Q8TBB1; [2]",3.58
same,pKd,"MAGI2_4, Q86UL8; [2]",3.49
same,pKd,"MAST1, Q9Y2H9; [2]",3.54
same,pKd,"MPP6, Q9NZW5; [2]",below the threshold
same,pKd,"NHERF2_2, Q15599; [2]",3.67
same,pKd,"PARD3B_1, Q8TEW8; [2]",below the threshold
same,pKd,"SCRIB_1, Q14160; [2]",3.68
same,pKd,"SNTA1, Q13424; [2]",4.23
same,pKd,"SNTG1, Q9NSN8; [2]",below the threshold
B4,pKd,"APBA2_1, Q99767; [2]",below the threshold
same,pKd,"APBA3_1, O96018; [2]",below the threshold
same,pKd,"DFNB31_2, Q9P202; [2]",below the threshold
same,pKd,"DFNB31_3, Q9P202; [2]",3.6
same,pKd,"DLG3_2, Q92796; [2]",4.02
same,pKd,"DLG3_3, Q92796; [2]",below the threshold
same,pKd,"DLG4_3, P78352; [2]",below the threshold
same,pKd,"GRASP, Q7Z6J2; [2]",below the threshold
same,pKd,"GRIP2_5, Q9C0E4; [2]",below the threshold
same,pKd,"HTRA1, Q92743; [2]",4.45
same,pKd,"HTRA3, P83110; [2]",below the threshold
same,pKd,"IL16_1, Q14005; [2]",below the threshold
same,pKd,"IL16_4, Q14005; [2]",3.5
same,pKd,"Inadl_2, Q8NI35; [2]",3.97
same,pKd,"Inadl_6, Q8NI35; [2]",below the threshold
same,pKd,"Inadl_9, Q8NI35; [2]",3.83
same,pKd,"LAP2, Q96RT1; [2]",below the threshold
same,pKd,"LNX1_2, Q8TBB1; [2]",below the threshold
same,pKd,"MAGI2_4, Q86UL8; [2]",below the threshold
same,pKd,"MAST1, Q9Y2H9; [2]",4.28
same,pKd,"MPP6, Q9NZW5; [2]",3.81
same,pKd,"NHERF2_2, Q15599; [2]",3.67
same,pKd,"PARD3B_1, Q8TEW8; [2]",3.85
same,pKd,"SCRIB_1, Q14160; [2]",below the threshold
same,pKd,"SNTA1, Q13424; [2]",below the threshold
same,pKd,"SNTG1, Q9NSN8; [2]",3.82
